Results taken from US20230333112 (published 2023).

Target: T1, human NKp30 (BKM0179) (human, UniProt O14931)
T1 chain: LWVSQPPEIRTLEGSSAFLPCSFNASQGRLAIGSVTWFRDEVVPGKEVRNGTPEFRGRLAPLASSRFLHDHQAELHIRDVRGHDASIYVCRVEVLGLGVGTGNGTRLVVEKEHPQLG
Assay: SPR

B1: BJM1078 (BJM0407 parental) (antibody, V domains shown)
VH: EIQLLESGGGLVQPGGSLRLSCAVSGFSITTTGYHWNWVRQAPGKGLEWVGYIYSSGSTSYNPSLKSRFTISRDTSKNTFYLQMNSLRAEDTAVYYCARGDWHYFDYWGQGTMVTVSS
VL: QSVTTQPPSVSGAPGQRVTISCSGEKLSDKYVHWYQQLPGTAPKMLIYENDRRPSGVPDRFSGSNSGNSASLAITGLQAEDEADYFCQFWDSTNSAVFGGGTQLTVL
In the case of B1, the Kd is reported as 1.48 nM.
